Our source for the IC50 values is patent US20200283478A1 (Genentech, published 2020).

One may read the IC50 as the point on the concentration scale where inhibition reaches its midpoint. High values mean a need for much substance, low ones inhibition by little substance.

The target in assay [1] is T1, His-tagged PCSK9Δhelix (human, UniProt Q8NBP7 31-152; Q8NBP7 168-692).
T1 construct: Construct M1-Q692 with engineered TEV site, cut by TEV protease; new N-terminus of the catalytic domain is S-A168; also called His-PCSK9Δhelix
The assay can be described thus: TR-FRET competition; His-PCSK9Δhelix, competitor Ab20. On the technique in general: Time-resolved FRET reads energy transfer from a long-lived donor to a nearby acceptor.

Assay [2] has as its target T2, His-tagged, full-length PCSK9 (human, UniProt Q8NBP7 31-692).
T2 construct: The secreted protein is autocleaved into a prodomain and a catalytic/Cys-rich chain that starts at S153; also called His-PCSK9
The assay can be described thus: TR-FRET competition; His-PCSK9, competitor EGF(A)-Fc.

Ends that are not written are not given here. * marks the point of attachment. Pentanoyl = CCCCC(=O)* Where only a bound is given, the exact number is not on record here.

T2 sequence (Q8NBP7 other isoform, or with tags, fused parts or gaps limits assumed): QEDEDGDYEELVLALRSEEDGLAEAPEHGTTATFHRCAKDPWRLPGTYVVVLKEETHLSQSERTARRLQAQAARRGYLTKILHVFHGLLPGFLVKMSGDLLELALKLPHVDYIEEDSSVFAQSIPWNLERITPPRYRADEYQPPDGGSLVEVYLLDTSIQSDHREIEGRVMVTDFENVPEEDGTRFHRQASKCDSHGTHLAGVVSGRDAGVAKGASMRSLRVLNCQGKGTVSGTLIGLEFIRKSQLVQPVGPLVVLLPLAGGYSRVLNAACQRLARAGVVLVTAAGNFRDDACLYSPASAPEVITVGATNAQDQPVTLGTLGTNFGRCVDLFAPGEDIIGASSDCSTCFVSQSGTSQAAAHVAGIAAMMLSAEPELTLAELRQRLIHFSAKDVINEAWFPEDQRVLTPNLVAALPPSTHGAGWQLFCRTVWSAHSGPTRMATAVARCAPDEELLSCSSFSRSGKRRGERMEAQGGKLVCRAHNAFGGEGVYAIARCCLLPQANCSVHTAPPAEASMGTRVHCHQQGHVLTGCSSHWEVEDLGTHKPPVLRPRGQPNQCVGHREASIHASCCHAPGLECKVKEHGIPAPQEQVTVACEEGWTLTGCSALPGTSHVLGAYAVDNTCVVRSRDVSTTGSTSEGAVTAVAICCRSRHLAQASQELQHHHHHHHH
T1 sequence (Q8NBP7 31-152, stated change not applied, chain 1 of 2): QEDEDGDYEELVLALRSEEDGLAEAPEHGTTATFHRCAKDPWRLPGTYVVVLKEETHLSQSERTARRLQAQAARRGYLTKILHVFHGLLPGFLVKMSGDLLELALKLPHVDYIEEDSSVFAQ
T1 sequence (Q8NBP7 other isoform, or with tags, fused parts or gaps mutant, chain 2 of 2): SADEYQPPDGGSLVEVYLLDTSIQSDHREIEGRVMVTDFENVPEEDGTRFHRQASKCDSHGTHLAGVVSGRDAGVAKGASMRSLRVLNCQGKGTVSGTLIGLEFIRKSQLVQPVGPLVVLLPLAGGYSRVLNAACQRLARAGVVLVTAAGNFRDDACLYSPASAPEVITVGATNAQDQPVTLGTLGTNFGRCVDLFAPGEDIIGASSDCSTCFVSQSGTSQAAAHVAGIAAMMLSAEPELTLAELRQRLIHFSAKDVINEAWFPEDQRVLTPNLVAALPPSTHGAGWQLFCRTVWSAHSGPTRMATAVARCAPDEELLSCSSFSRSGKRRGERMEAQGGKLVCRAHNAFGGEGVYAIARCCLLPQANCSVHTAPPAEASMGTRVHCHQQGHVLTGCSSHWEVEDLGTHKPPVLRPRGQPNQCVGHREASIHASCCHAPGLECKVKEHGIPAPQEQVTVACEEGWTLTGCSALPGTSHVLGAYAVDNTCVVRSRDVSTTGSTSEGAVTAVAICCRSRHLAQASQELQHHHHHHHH

Regarding Ac-SGDLMPWNLVRIGLLR-NH2 [Compound 122], the IC50 in assay [1] amounted to 5.6 µM. WNLVRIGLLR (also: further groups not given here, Structure printed only as a drawing) [Compound 128]: the IC50 in assay [2] is at least 50 µM; in assay [1], 7.5 µM. In the same order, the values of WNLVRIGLLR (also: further groups not given here, Structure printed only as a drawing) [Compound 126] are at least 50 µM and 19 µM.

As for {n‑PrC(O)}-WNLVRIGLLR-NH2 [Compound 123], the IC50 in assay [2] is at least 50 µM; in assay [1], 18 µM. In the same order, the values of WNLVRIGLTR (also: further groups not given here, Structure printed only as a drawing) [Compound 166] are at least 50 µM and 5.9 µM. On the same counts, the results for WNLVRIGLTR (also: further groups not given here, Structure printed only as a drawing) [Compound 188] are 22 µM and 7.6 µM.

As to WNLVRIGTLR (also: further groups not given here, Structure printed only as a drawing) [Compound 183], the IC50 in assay [2] was found to be 18 µM; in assay [1], 2.5 µM. For the molecule WNLVRIGLTR (also: further groups not given here, Structure printed only as a drawing) [Compound 161], the concentration for half-maximal inhibition (IC50) in assay [2] was at least 50 µM; in assay [1], 5 µM. In the same order, the values of Pentanoyl-WNLVRIGLTR [Compound 176] are at least 50 µM and 18 µM. On the same counts, the results for WNLVRIGLTR (also: further groups not given here, Structure printed only as a drawing) [Compound 167] are at least 50 µM and 43 µM. On the same counts, the results for WNLVRIGLTR (also: further groups not given here, Structure printed only as a drawing) [Compound 173] are at least 50 µM and 9.8 µM. For WNLVRIGLTR (also: further groups not given here, Structure printed only as a drawing) [Compound 170], the IC50 in assay [2] is at least 50 µM; in assay [1] it was 3.1 µM.

B1: Compound 177 (peptide)
peptide: Pentanoyl-WNLVRIGLER-NH2
SMILES: CCCCC(=O)N[C@@H](Cc1c[nH]c2ccccc12)C(=O)N[C@@H](CC(N)=O)C(=O)N[C@@H](CC(C)C)C(=O)N[C@H](C(=O)N[C@@H](CCCNC(=N)N)C(=O)N[C@H](C(=O)NCC(=O)N[C@@H](CC(C)C)C(=O)N[C@@H](CCC(=O)O)C(=O)N[C@@H](CCCNC(=N)N)C(N)=O)[C@@H](C)CC)C(C)C
In the case of B1, the IC50 in assay [2] was at least 50 µM; in assay [1], 35 µM. On the same counts, the results for WNLVRIGLTR (also: further groups not given here, Structure printed only as a drawing) [Compound 171] are at least 50 µM and 7.7 µM. As to WNLVRIGLTR (also: further groups not given here, Structure printed only as a drawing) [Compound 189], the values for the IC50 in assay [2] and in assay [1] were 38 µM and 12 µM, respectively. In the same order, the values of WNLVRIGLTR (also: further groups not given here, Structure printed only as a drawing) [Compound 164] are at least 50 µM and 12 µM. On to WNLVRIGTLR (also: further groups not given here, Structure printed only as a drawing) [Compound 182], for which the IC50 was found to be 14 µM in assay [2] and 4 µM in assay [1]. With WNLVRIGLTR (also: further groups not given here, Structure printed only as a drawing) [Compound 163], the IC50 was at least 50 µM in assay [2] and 37 µM in assay [1]. On the same counts, the results for WNLVRIGLTR (also: further groups not given here, Structure printed only as a drawing) [Compound 190] are 30 µM and 7 µM. On the same counts, the results for WNLVRIGLTR (also: further groups not given here, Structure printed only as a drawing) [Compound 168] are at least 50 µM and 7.8 µM. With WNLVRIGTLR (also: further groups not given here, Structure printed only as a drawing) [Compound 185], the IC50 in assay [2] amounted to 5.7 µM; in assay [1], 0.39 µM.

B2: Compound 179 (peptide)
peptide: Pentanoyl-WNLVRIGLGR-NH2
SMILES: CCCCC(=O)N[C@@H](Cc1c[nH]c2ccccc12)C(=O)N[C@@H](CC(N)=O)C(=O)N[C@@H](CC(C)C)C(=O)N[C@H](C(=O)N[C@@H](CCCNC(=N)N)C(=O)N[C@H](C(=O)NCC(=O)N[C@@H](CC(C)C)C(=O)NCC(=O)N[C@@H](CCCNC(=N)N)C(N)=O)[C@@H](C)CC)C(C)C
For the molecule B2, the figures for the IC50 in assay [2] and in assay [1] were at least 50 µM and 11 µM, respectively.

B3: Compound 178 (peptide)
peptide: Pentanoyl-WNLVRIGLDR-NH2
SMILES: CCCCC(=O)N[C@@H](Cc1c[nH]c2ccccc12)C(=O)N[C@@H](CC(N)=O)C(=O)N[C@@H](CC(C)C)C(=O)N[C@H](C(=O)N[C@@H](CCCNC(=N)N)C(=O)N[C@H](C(=O)NCC(=O)N[C@@H](CC(C)C)C(=O)N[C@@H](CC(=O)O)C(=O)N[C@@H](CCCNC(=N)N)C(N)=O)[C@@H](C)CC)C(C)C
B3: the IC50 is at least 50 µM in assay [2] and 18 µM in assay [1]. On the same counts, the results for WNLVRIGTLR (also: further groups not given here, Structure printed only as a drawing) [Compound 184] are 19 µM and 12 µM.

B4: Compound 181 (peptide)
peptide: Pentanoyl-WNLVRIGLSR-NH2
SMILES: CCCCC(=O)N[C@@H](Cc1c[nH]c2ccccc12)C(=O)N[C@@H](CC(N)=O)C(=O)N[C@@H](CC(C)C)C(=O)N[C@H](C(=O)N[C@@H](CCCNC(=N)N)C(=O)N[C@H](C(=O)NCC(=O)N[C@@H](CC(C)C)C(=O)N[C@@H](CO)C(=O)N[C@@H](CCCNC(=N)N)C(N)=O)[C@@H](C)CC)C(C)C
For B4, the values for the IC50 in assay [2] and in assay [1] were at least 50 µM and 8.9 µM, respectively. For the molecule WNLVRIGLTR (also: further groups not given here, Structure printed only as a drawing) [Compound 169], the results for the IC50 in assay [2] and in assay [1] were at least 50 µM and 6.8 µM, respectively. For the molecule WNLVRIGLTR (also: further groups not given here, Structure printed only as a drawing) [Compound 172], the IC50 in assay [2] is at least 50 µM; in assay [1], 8.5 µM.

B5: Compound 180 (peptide)
peptide: Pentanoyl-WNLVRIGLAR-NH2
SMILES: CCCCC(=O)N[C@@H](Cc1c[nH]c2ccccc12)C(=O)N[C@@H](CC(N)=O)C(=O)N[C@@H](CC(C)C)C(=O)N[C@H](C(=O)N[C@@H](CCCNC(=N)N)C(=O)N[C@H](C(=O)NCC(=O)N[C@@H](CC(C)C)C(=O)N[C@@H](C)C(=O)N[C@@H](CCCNC(=N)N)C(N)=O)[C@@H](C)CC)C(C)C
As for B5, the IC50 in assay [2] was at least 50 µM; in assay [1], 12 µM. Regarding WNLVRIGLTR (also: further groups not given here, Structure printed only as a drawing) [Compound 165], the results for the IC50 in assay [2] and in assay [1] were at least 50 µM and 18 µM, respectively.

B6: Compound 159 (peptide)
peptide: Pentanoyl-WNLKRIGLLR-NH2
SMILES: CCCCC(=O)N[C@@H](Cc1c[nH]c2ccccc12)C(=O)N[C@@H](CC(N)=O)C(=O)N[C@@H](CC(C)C)C(=O)N[C@@H](CCCCN)C(=O)N[C@@H](CCCNC(=N)N)C(=O)N[C@H](C(=O)NCC(=O)N[C@@H](CC(C)C)C(=O)N[C@@H](CC(C)C)C(=O)N[C@@H](CCCNC(=N)N)C(N)=O)[C@@H](C)CC
With B6, the IC50 in assay [2] is at least 50 µM; in assay [1] it was 6.6 µM.

For the molecule WNLVRIGLTR (also: further groups not given here, Structure printed only as a drawing) [Compound 162], the IC50 is at least 50 µM in assay [2] and 37 µM in assay [1]. In the same order, the values of WNLVRIGLLR (also: further groups not given here, Structure printed only as a drawing) [Compound 127] are at least 50 µM and 29 µM.

In the case of WNLVRIGLLR (also: further groups not given here, Structure printed only as a drawing) [Compound 129], the results for the IC50 in assay [2] and in assay [1] were at least 50 µM and 23 µM, respectively. On the same counts, the results for Ac-GLMPWNLVRIGLLR-NH2 [Compound 124] are at least 50 µM and 3.9 µM. Take Ac-GGMPWNLVRIGLLR-NH2 [Compound 125]: the IC50 was at least 50 µM in assay [2] and 7 µM in assay [1].
